Source: patent US20230233632A1 (MYCOMAGIC BIOTECHNOLOGY, published 2023)

Target: T1, ACE2 tested for a complex with GMI by immunoprecipitation (human, UniProt Q9BYF1 18-805)
T1 construct: also called hACE2; angiotensin converting enzyme 2
Assay: immunoprecipitation

T1 sequence (Q9BYF1 18-805 limits assumed, one chain of several): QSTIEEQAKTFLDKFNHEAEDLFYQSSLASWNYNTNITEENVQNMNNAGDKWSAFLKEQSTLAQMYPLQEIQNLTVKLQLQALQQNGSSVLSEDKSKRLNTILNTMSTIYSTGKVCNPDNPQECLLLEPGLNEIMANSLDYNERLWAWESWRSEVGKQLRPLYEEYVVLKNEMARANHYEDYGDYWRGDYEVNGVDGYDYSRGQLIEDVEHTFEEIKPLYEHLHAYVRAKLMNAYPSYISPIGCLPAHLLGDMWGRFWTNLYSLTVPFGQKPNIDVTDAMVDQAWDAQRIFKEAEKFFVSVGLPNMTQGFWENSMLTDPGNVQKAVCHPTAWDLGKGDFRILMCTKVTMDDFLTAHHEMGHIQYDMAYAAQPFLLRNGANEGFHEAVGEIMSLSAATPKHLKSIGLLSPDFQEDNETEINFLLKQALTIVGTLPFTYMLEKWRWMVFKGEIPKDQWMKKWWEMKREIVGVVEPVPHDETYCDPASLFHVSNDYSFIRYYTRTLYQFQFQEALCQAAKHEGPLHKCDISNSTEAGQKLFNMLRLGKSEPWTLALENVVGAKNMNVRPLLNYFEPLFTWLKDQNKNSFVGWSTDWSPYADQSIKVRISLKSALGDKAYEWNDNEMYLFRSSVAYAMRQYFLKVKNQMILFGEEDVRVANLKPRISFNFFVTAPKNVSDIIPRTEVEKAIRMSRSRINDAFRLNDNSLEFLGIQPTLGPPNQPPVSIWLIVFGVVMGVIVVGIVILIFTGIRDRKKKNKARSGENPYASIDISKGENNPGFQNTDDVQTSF

B1: Ganoderma immunomodulatory protein (GMI) from Ganoderma microsporum (other)
chain: MSDTALIFTLAWNVKQLAFDYTPNWGRGRPSSFIDTVTFPTVLTDKAYTYRVVVSGKDLGVRPSYAVESDGSQKINFLEYNSGYGIADTNTIQVYVIDPDTGNNFIVAQWN
notes: also called His tagged-GMI; fungal immunomodulatory protein (FIP)
B1: no binding.
